Values quoted from earlier work, collected in paper PMC1775043.

Target: hnRNP A2 (Homo sapiens) (UniProt P22626)
Experiment: FCS

## hnRNP A2 (from UniProt P22626)
  Kd: 0.1 nM
